Source: the domain aggregation screens of Martell et al. (2025)

test: soluble fraction after stress (log2 fold change); higher = more stays soluble; pooled small domains, quantitative proteomics; settings: stress: pH 4
Procedure, shortened: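 Custom libraries of small protein domains were pooled and measured with high-throughput quantitative proteomics after pH 4 stress. The read-out is the fold change in the amount of each domain that stays soluble after the acid stress, taken as a measure of aggregation propensity. Fold changes are on a log2 scale, and higher values mean more of the domain stayed soluble.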

Row | Sequence | soluble fraction (log2)
1 | HMEQISIETRIEQLLARLSETEASGFEELFADTSSRADLITTFLALLEMIRLKLVRVFQDGSFGPIRIYKR | -1.5
2 | HMNSLGYSDFVVDVQNERVASVVIEGLIINGERRDGTKFRTVLPTIGDQRLMDDLINHNVKVLARE | 0.226
3 | HMAIKNKNEQLEAIIKFADLRGEFKTADIEELLSIKSSRARLLISELVKIGKLESIGSNRNRRYHIK | -0.302
4 | HMDPIATLTPREREVLSLMAEGRSNGAIAAALVVGDGAVEKHVSNIFQKLELTPAEGDHRRVLAVLRWLE | -0.864
5 | HMERPEVVAYRLAYASAESLRPALGLVASPSDLEIDERTNTLIVRAVPSVQERVAELVASLDI | -0.889
6 | HMDAMQAFPNPTVDEIHFVTPTTGRVYNAHGQLVMVLKNAQLVNVRQWSAGQYVIVREDGYAVRWIK | -0.43
7 | HMEKEEELNSIRPDLDGNDIMEILGVPAGPKVGKAYNYLLNVRLDEGPLSRAEAISRLEAWWENQ | -1.22
8 | HMNIDNTWQPSEDVVEILTRSGINEDFINELIPEFIVYWTERPGTLVSYNSKFIEHVRLKWAQHSAEI | -1.04
9 | HMYESAMSDLHARIMSSDDPHGEIYKMLTQSGPEAKYIQDMYNETSIDRGLHPDDDFEDIIDAMVAELDD | -1.24
10 | HMIAASPVGGIDRVLELLDARGQRVAWIEASGTEGGQRLRLGWIDAQGAERHGAWVPWSADDLLLYA | -0.547
11 | HMPATTMMVVVDRDLPYGHVLTDRDVRLETRRATSPGASVAFTSIDPVLGQSLTRPLGAGTPVGRADLR | -0.151
12 | HMQKLLGPFEDFVKIKLDKYPDTKAAQMHDWLKEHYPDFPEVTPKTVYNFVMYVRQRHNIPIPD | -0.276
13 | HMATIIGSIGIVTQKVGLTGVPGRVYVNNESWAAISANGKEIENDTQVIVVKIDGATLIIEKKG | -0.262
14 | HMAPSLSEYAYEEIKHAIERGVYPPGAKLITQEIADRLGISRTPVVAAVNRLTAEGYADAVPQHGIFVK | 0.0288
15 | HMEEPEELYRVKILIYNLLVRNGPGILYTRLRRADYPGEYGIYEEKNGYGKISATLSEWISLNTEYVQRLD | -0.378
16 | HMIYWGTMVDKIYEVLSLAGKPLSLMEIYQQVKVFFPNSTKSSIEASMRLDARHRFKYDVEGHVYSLVD | -0.368
17 | HMRKKIIAQTLEEIRKSKGYSQKQVAAFIKVKPTTYNTYESGRTEPPAEILVRLSYLYRTPVDTLVQRDR | 0.226
18 | HMSTKYSSNIISLVKGLMEEDQYKDLMGPPLKKEIIKKVESITDTFPYKFDKDDKEFIVKKVLISLRK | 0.148
19 | HMDVNKDLLGETLEKAKSYKADDWRKASYEALQKAIVEAEAVYKDEEADQVAVDRKVAALNKAINNLEAKG | 0.241
20 | HMTGKVKWYDADKGFGFVTEDGGRDVYVRKSALPQGVETLKAGQRLEFGIAEGRRGPQALSVR | -0.0382
21 | HMVVEGMQFDRGYLSQYMVTDNEKMVADLENPYILITDKKISNIQEILPLLESILQSSRPLLIIADD | -0.573
22 | HMTVDYDKFTKDTVVQHNKFGKGVIIMTSGDGEDKIASIAFQGLGVKRFSLAIAASNLKILGKVNED | -0.195
23 | HMDGEFINLKNRAGTEIEARILNYQNGQVKLERKDGVTFVVSISMFDAKSVIAINHKIAEIIDT | 0.12
24 | HMEHTPHGVALLRTLMDQYGLKAADLANELGSKSNVSNILNGRRALTVSHIKMLAERFNLPADAFI | -0.137
25 | HMKVKIFNGMKLVTNSTGLTVDGKPAALDESNADAKTYSQGLYVFIVYQSGKIAVMQDGKFLGYA | 0.301
26 | HMSDLPLLEHARQNLSDDEFRILELTTIYGYRRVEVAKMLGEPISTINWKYNKLIKKVKTFYGEVYN | -0.567

Row | Sequence | soluble fraction (log2)
27 | HMKETERKILQAVLGLPLKYRDVIHLFYYEEMSVKEIAEVLHRQESTVTSQLTRARGILKKNL | -0.377
28 | HMGIAEGSSVFVRVLAAEDGGRYTVSFAGRRFSVLSRQALGIGSAFRADVKVEKGQVLLVPR | -0.348
29 | HMNNQMTFSKFLNEVDAGRVVEVEIQGNNIKGVLADGNRFNTFSPNYPNLVEKLSDKGVSITAAPK | 0.205
30 | HMGSKQVSVPDVRNLDYERASQQLREAGFVVGDVLRIRDDRAPAGTVIAQSPAAPALVPENARVSLLVSSG | 0.00984
31 | HMAQVSDDAELEKWADTAIDEHPKPVEEYRAGNAASINFLMGQVMKMSRGKANPGAVMQILKQKLD | 0.22
32 | HMKTRNISGNHEAVWQAVRSRTQAGHPTTRAVIMDDLKAQGLNTQKFSRWLKKLVDDGSVYMDGDTIIMGK | -0.12
33 | HMDPTIRRGELIDAASRLFLSKGYAATSVRDILDEVGNRTASPSVFYYYFKSKEEIYQAVLRRHSE | -0.485
34 | HMHFIMEYRIRAYVDELFESAPRTQRAYELKIELTQNLIDKYYALVSEGKSEQDAYNLTVMSIGDVREL | -0.959
35 | HMSDIISEIESQVMFKLATYEITNATEKMIEALINSEINDRRTLGFPIPNEQGRIFLVRSIQNKLAV | -1.54
36 | HMRAERVQITDPYIELHTGPGRGFPIFFVAPREQWISIELRHTDWFKVRAVGGQVGWVQRKQLEST | -0.295
37 | HMRGGWESLTDREREIAVLAAEGHSNRTIASTLFISDRTVQSHVSRALRALGVDSRTGIPSLVTTATR | -0.217
38 | HMQNSYSVEDLALKAGLSVDTIRYYQGLDLIAPPQKNGRRAIYGDEHLSRLDEIKKLALEGFSLRQISLLK | -1.02
39 | HMFTEPQKLVKRILNMLGHRYDDASIQARSDFQASNNYHKVQVKKKRESMEEYTAWLEEMYDAYRIN | 0.0985
40 | HMLPDVSITGHIFIRSGSRLNRIFVGESTYHVGDMLDGKWLIESINSDSLELRSGTQTTELPL | -0.066
41 | HMSVDDVALRLEFGPSDAEALAFVHRHGAILSETTDRDTGVVSVHVRLSEADAGRFNQRYGV | -0.233
42 | HMETTVSYSGVVTASVLRIRKGPSVSSSVAGTLKKGTGVSIIFEDNGWGKLADGSGWVSLTYIKKNSTP | -0.101
43 | HMESSYKGFILDIETRQFSPTLIQRRGIAINPSGIVETTTEFSFATQEKVLIEDLKLIIDELDLRADY | -2.31
44 | HMSVTYRLLITSSPGQAEVFLDGKRVGITPFSARLAAGWYQVRVSKEGYNLWEQHVQLREDQRLTATLT | 0.229
45 | HMAESSPYTVRPGDTLWKILAQTQNARYNDFPYLYRKFRELNPNITDLNHIVSGQKIIVPHIPG | 0.196
46 | HMARIDYHAMDSDDLSFSEGELLEIYDKPGSFWWKGRSLVSGDEGDIPS | -1.15
47 | HMDYKSNLQEMVQTTKKSVTYELVKEEGPAHDRTFTMNVIVDGIVLGTGTAKSKKEAEQEAAHQALEKKA | -0.0453
48 | HMANTVVMPNLLGKTMTEAKIELKELGIDITLKGSESSSKYSAGQIMEQNIAEGTKVEVGSSVEVTIAGS | 0.334
49 | HMNILNYIIENENQEVRVDKFLSDTIEDMSRSSVASIIEDGGLLVNDKLQNKKYKLKIGDKVQFTVPDPV | -0.121
50 | HMNLGNLLKIYRKNSLLTQQQVADALNINRTTYTYYETGKTEPSIDTLHKLIKIFGITYDDLL | -0.337
51 | HMAVSDPTAGGIKALMYPNPAQDRLSVALDIPAGLDKQAQMTVTDMMGRVVTQQQVTLNDGFQVFEL | 0.209
52 | HMVSVLDHIVGIGAKRRQSLWNHFGTIDKIKAASIDELLKAPGMNRPSAEAVYYFFEAQRQLRGK | 0.0106

Row | Sequence | soluble fraction (log2)
53 | HMEGDAFAFTGDIQKDLLSITAVHPMRREAVDALIAKAGASWAIVEKLLAHGELTEAKHDGHLFYLRKF | -0.354
54 | HMLSKGDRVSWDTPQGRTQGEVVEKKTKDFEHDGQKFTASDDDPAFIVKSEKSGAEAAHKGSALNK | -0.0554
55 | HMQYPSSLDSRAKQSLYDNLERNEILALALDNVIQSNKLDGWRDGGIKERKLRLAINNLLKNDEHTDNIME | -0.284
56 | HMSGPVITEERNIANALISGLANMKETPTREQVERKAQQIAELFGYTGDLRNIITEAMISVDT | -0.137
57 | HMENHILIIDDDLMLLKTAEEILSDQYNVSVAKSGIQALNLLNKNIIPDLILLDIDMPQMDGYETL | -0.554
58 | HMDEEGDALDREYEDQIRLGDEAFDAEDWTSAQRAYTAALELRPDERYPKNRLRRLASLQEDV | 0.161
59 | HMARTGSEELVGALATVREPLAPWGQVFVQGALWRARSADGGPVDAGQQVVVRAVEGLTLVVEPRD | -0.166
60 | HMPVRIYEISKKLGLENKEVLATAKSLGIAAAKVPSSSLDKITAEYLEEEILKSHPEVAARLK | ≥ 0.43
61 | HMSPDTREAILAAARTAFARDGYQTSLRGIARDAGVDPALVHHYFPDRATLFAKAVIESTAG | -0.047
62 | HMETSLVIQIDGAVNSPGIYQVTPGTRIFEALELAGGVREDAQTEALNLALPVYDGQRISIPSSFA | -1.58
63 | HMGGDFVEHLKDLASEAPVIRLVNTIIGRVIDLRASDIHLEPFDDGLHVRYRVDGVIHPGELVPPRLS | -0.249
64 | HMDEVVVVERGGVQITMSEIDAKIMELPVDVRPSYLDSPERLQNFVSNLLLEKQAAQLKSQY | -1.42
65 | HMHMSKKLADSISALRKKNGLSQEQLAEKIGISRQTVSNWERGIATPDVETLNLISKLFDEDLSVMING | 0.043
66 | HMNTKLSYSDLIEKIEAGQVEKVELDAGGSSAIVKLKNDNIEKRVNVPSIDNLMENLQDNMKTGNISVTE | -0.202
67 | HMRDGYEKPTEVGEGGRNPAMLSYIGHLRAKGHLSEEDIRSMAHGFNATTFDPPLDRDEVDGLVSRY | ≥ 0.43
68 | HMRPTYRTRLEVLINNPAISGRDLDFAQSLLSYYERKGRLSAGRVKWVTTLEERYSPENLAASAAK | -0.306
69 | HMQISDSASVKTVVAEAIAANPKAVADFMNGKDTATRYLVGQVMKITKGQAKPELVNQLVLESLAELKEK | 0.226
70 | HMSERIITFGEATREAMLEEMRADERVFVYGEDIAKQGGIFGQFAGMKDEFPERVLDTPISETALVGAG | -0.679
71 | HMLVATFGPTTGWEGREIIWDVDRFILVGHGAVPAAGVLDYDRRGQLIWAQPELRAWVVEVDRWETG | -1.61
72 | HMHLLGASIAAYRKKAGMTQEDLGRALFVSGQAVSRWERGGTPDSDMLPKIADVLGISLDTLFGRS | -0.269
73 | HMSVPSVAAVREQTGLSQVKFASLLGVSVRTLQEWEQGRRAPSGAARTLLMVAAKNPQALLEV | -0.0956
74 | HMDIYLTAFKTTSNQVTLNGIARSDLIISEFMRDIRDAKLFGEPVLQVIQNKNLNNVQARVFELVVPL | -0.399
75 | HMQELVPGKVFEGTVTEMKNGQVTLGLSDGKTISARMEQGVSLAKGQPMLFEVKSNTGEQIAIRPVVL | 0.105
76 | HMEQIETIFLSAAPYARTHIIHLLETSELFRDKYLTIVETSNGLLIYTEDKNRLLGILNSLT | -1.24
